The target of data set [1] is T1, Human S100A6 (Homo sapiens, UniProt P06703).
T1 construct: purchased Abnova
Briefly: ELISA specificity (reaction pattern of mAb). Type of data set: binding. On the set-up: key: ++++ positive reaction; − no reaction.

Data set [2] is described as follows: Body weight and adverse side effects in xenograft experiments. Type of data set: in vivo.
The target in data set [3] is T2, Human S100A7 (Homo sapiens, UniProt P31151).
T2 construct: made in house
T2 sequence (P31151 1-101): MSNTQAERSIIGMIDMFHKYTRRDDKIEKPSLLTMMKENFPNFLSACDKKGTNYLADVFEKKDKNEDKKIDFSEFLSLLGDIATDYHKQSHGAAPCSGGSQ
The data set is described as follows: ELISA specificity (reaction pattern of mAb). Type of data set: binding. The arrangement: key: ++++ positive reaction; − no reaction.

Data set [4] has as its target T3, Human S100P (Homo sapiens, UniProt P25815).
T3 construct: made in house
T3 sequence (P25815 1-95): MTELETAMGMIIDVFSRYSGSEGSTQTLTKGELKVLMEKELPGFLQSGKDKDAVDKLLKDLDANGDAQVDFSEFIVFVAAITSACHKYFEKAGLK
The data set is described as follows: ELISA specificity (reaction pattern of mAb). Type of data set: binding. The arrangement: key: ++++ positive reaction; − no reaction.

In data set [5] the test system is MiaPACA-2 tumors. The data set is described as follows: MiaPACA-2 subcutaneous xenograft tumor development. Type of data set: in vivo, nude mice. The following applies: MiaPACA-2, end of experiment (day 30). As to the method: MiaPACA-2 human pancreatic adenocarcinoma cell line and HCT116 human colorectal adenocarcinoma cell line in exponential growth were harvested with trypsin-EDTA (0.05%/0.02%) (Invitrogen), washed, and examined for viability by trypan blue dye exclusion. Viability was greater than 95%. For primary tumor growth, cells (either 5×10^6 or 1×10^6 cells for MiaPACA-2 or HCT116 respectively in 0.1 mL DMEM high glucose) were subcutaneously injected into the flanks of nude mice. Tumor volumes between 65-160 mm^3 for MiaPACA-2 and volumes between 155-370 mm^3 for HCT116 were used to divide the mice into two groups of either ten mice each (MiaPACA-2) or seven mice each (HCT116), such that the mean tumor size was equal between groups (approximately 100 mm^3 for MiaPACA-2 or 220 mm^3 for HCT116). Tumor growth was followed by measuring tumor diameters with calipers and the tumor volume was calculated using an approximated formula for a prolate ellipsoid: volume=(D×d^2)/2 where D is the longest axis of the tumor and d the shortest. Mice were treated either with vehicle (PBS) or with the antibody, i.p. three times per week at 25 mg/Kg/100 μL of sterile PBS, starting the treatment at defined tumor volume (100 mm^3 and 220 mm^3). […]

Data set [6] concerns the target T4, murine S100A4 (Mus musculus, UniProt P07091).
T4 construct: total extracts from tumor cell lines of different origins and the mouse embryonic fibroblast cell line NIH3T3; endogenous in cells; host or cells: NIH-3T3 mouse fibroblasts
Briefly: Western-blot of NIH-3T3 mouse fibroblast extract. Type of data set: binding. On the procedure:
Cell and tumors samples were rinsed twice with PBS and immediately lysed with ice cold Cell Lysis Buffer (150 mM NaCl, 1% IGEPAL CA630, 5 mM EDTA, 100 μg/mL PMSF, 1 mM Na3VO4, 1 mM NaF and 50 mM Tris pH 7.4). Lysates were cleared by centrifugation and the protein concentration was quantified with the Bradford reagent (Bio-Rad). Total extracts (50 μg) were resolved in a 12% SDS-polyacrilamide gel (PAGE) electrophoresis under reduced conditions and transferred to BioTrace™ PVDF membranes (PALL corporation). Membranes were blocked for 1 hour in TBS plus 0.1% Tween-20 with 5% skimmed dried milk, incubated overnight with the relevant primary antibody and then with the secondary antibodies for 1 hour in blocking buffer, washing three times for 10 min in TBS plus 0.1% Tween-20 after each incubation. Signals were developed using the ECL™ Western Blotting Detection Reagents (Amersham) and exposed to Hyperfilm™ ECL (Amersham).

The mark [7] stands for this setting: 25 mg/kg i.p. three times a week.

T4 sequence (P07091 whole entry): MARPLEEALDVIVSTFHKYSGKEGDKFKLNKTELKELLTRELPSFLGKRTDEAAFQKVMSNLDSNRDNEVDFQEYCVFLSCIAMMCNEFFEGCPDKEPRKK

B1: 5C3: mouse monoclonal anti-S100A4 antibody, IgG1, from hybridoma ECACC 10022401; VL SEQ ID NO: 1, VH SEQ ID NO: 2 (antibody, V domains shown)
VH: EAQLQQSGAELVKPGASVKLSCTASGFNIQETYMHWVKQRPEQGLEWIGRIDPANGNTKDDPKFQGKASITVDTSSNTAYLQLSSLTSEDTAVYYCASSYAMDYWGQGTSVTVSS
VL: DVLMTQTPLSLPVSLGDQASISCRSSQSIVHSNGNTYLEWYLQKTGQSPELLIYKVSNRLSGVPDRFSGSGSGTDFTLKISRVEAEDLGVYYCFQGSHVPFTFGSGTKLEIK
modifications: VH region of the 5C3 monoclonal antibody; VL region of the 5C3 monoclonal antibody
Regarding B1, in data set [1], the “Reaction Pattern of mAb in ELISA, Human S100A6” value was “−”. Also, in data set [2] (setting [7]), the “adverse side effects (motor incoordination, paralysis, ataxia, convulsions, diarrhoea, cachexia, erythema, hypothermia, mortality)” value is on record as “did not observe adverse side effects”; the body weight loss result was “No body weight loss”; the “macroscopic analyses of organs” value was “did not evidence abnormalities in organs”. Further, the tolerability result in data set [2] (25 mg/kg, three times a week up to the end of experiment) is listed as “well-tolerated”. The “Reaction Pattern of mAb in ELISA, Human S100A7” value in data set [3] was “−”. The “Reaction Pattern of mAb in ELISA, Human S100P” value in data set [4] was “−”. Also, the “tumor weight compared with the control group” value in data set [5] is reported as “statistically significant decrease”. Further, the “reaction with murine S100A4 in Western-blot” value in data set [6] is given as “also with murine S100A4”.

(Values after patent publication US9657092B2, “S100A4 antibodies and therapeutic uses thereof” (LYKERA BIOMED SA, priority 2010, dated 2017).)
